From patent US20150023971A1

Tests used:
[1] = target: purified human Sortilin extracellular domain (produced in stably transfected CHO cells) (human) (UniProt Q99523); assay: SPR (Biacore), 25-500 nM propeptide over immobilised Sortilin extracellular domain
[2] = target: purified human Sortilin extracellular domain (produced in stably transfected CHO cells) (human) (UniProt Q99523); assay: SPR (Biacore) competition, inhibitor prebound, then coinjected with 200 nM proNGF over immobilised Sortilin
[3] = target: T1, recombinant his-S-tagged pro-domain of human BDNF (residues Ala1-Arg110), from pET-30 Xa/LIC, E. coli (human) (UniProt P23560); assay: SPR (Biacore 2000), 390 nM Sortilin over immobilised pro-domain (˜300 fmol/mm2)
T1 sequence: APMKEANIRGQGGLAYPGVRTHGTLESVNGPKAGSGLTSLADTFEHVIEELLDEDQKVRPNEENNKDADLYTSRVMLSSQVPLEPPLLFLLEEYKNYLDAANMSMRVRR

[4] = target: his-tagged sortilin luminal domain, mutant F165A (human) (UniProt Q99523); assay: SPR (Biacore), mutant immobilised on CM5, GST-pro-dom-NGF 10-50 nM, 1:1 fit
his-tagged sortilin luminal domain, mutant F165A (human), sequence (Q99523 other isoform, or with tags, fused parts or gaps F165A F165A limits assumed): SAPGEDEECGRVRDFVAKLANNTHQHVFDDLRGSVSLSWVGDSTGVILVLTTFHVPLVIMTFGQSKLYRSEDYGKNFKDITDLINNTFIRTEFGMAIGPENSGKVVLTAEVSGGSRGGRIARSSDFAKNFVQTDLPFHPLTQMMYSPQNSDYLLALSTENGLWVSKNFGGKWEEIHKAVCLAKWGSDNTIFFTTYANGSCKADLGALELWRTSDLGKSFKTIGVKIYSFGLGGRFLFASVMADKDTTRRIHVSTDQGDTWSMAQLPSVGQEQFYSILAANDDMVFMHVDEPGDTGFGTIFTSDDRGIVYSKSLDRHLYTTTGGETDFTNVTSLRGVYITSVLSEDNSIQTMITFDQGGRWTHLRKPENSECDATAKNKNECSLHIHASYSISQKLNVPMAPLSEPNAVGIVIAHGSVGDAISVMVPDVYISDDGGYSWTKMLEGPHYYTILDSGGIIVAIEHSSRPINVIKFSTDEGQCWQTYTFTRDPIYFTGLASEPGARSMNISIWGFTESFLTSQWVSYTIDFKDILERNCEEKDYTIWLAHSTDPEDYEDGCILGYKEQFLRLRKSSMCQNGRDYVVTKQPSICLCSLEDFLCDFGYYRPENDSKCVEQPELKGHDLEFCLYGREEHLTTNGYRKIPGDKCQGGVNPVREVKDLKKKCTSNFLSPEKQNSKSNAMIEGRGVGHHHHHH

[5] = target: his-tagged sortilin luminal domain, mutant F170A (human) (UniProt Q99523); assay: as above
his-tagged sortilin luminal domain, mutant F170A (human), sequence (Q99523 other isoform, or with tags, fused parts or gaps F170A F170A limits assumed): as the sequence (Q99523 other isoform, or with tags, fused parts or gaps F165A F165A limits assumed) above, with A121F, F126A counted along it

[6] = target: his-tagged sortilin luminal domain, mutant F174A (human) (UniProt Q99523); assay: as above
his-tagged sortilin luminal domain, mutant F174A (human), sequence (Q99523 other isoform, or with tags, fused parts or gaps F174A F174A limits assumed): as the sequence (Q99523 other isoform, or with tags, fused parts or gaps F165A F165A limits assumed) above, with A121F, F130A counted along it

[7] = target: his-tagged sortilin luminal domain, mutant K172A (human) (UniProt Q99523); assay: as above
his-tagged sortilin luminal domain, mutant K172A (human), sequence (Q99523 other isoform, or with tags, fused parts or gaps K172A K172A limits assumed): as the sequence (Q99523 other isoform, or with tags, fused parts or gaps F165A F165A limits assumed) above, with A121F, K128A counted along it

[8] = target: his-tagged sortilin luminal domain, mutant R160A (human) (UniProt Q99523); assay: as above
his-tagged sortilin luminal domain, mutant R160A (human), sequence (Q99523 other isoform, or with tags, fused parts or gaps R160A R160A limits assumed): as the sequence (Q99523 other isoform, or with tags, fused parts or gaps F165A F165A limits assumed) above, with R116A, A121F counted along it

[9] = target: his-tagged sortilin luminal domain, mutant R163A (human) (UniProt Q99523); assay: as above
his-tagged sortilin luminal domain, mutant R163A (human), sequence (Q99523 other isoform, or with tags, fused parts or gaps R163A R163A limits assumed): as the sequence (Q99523 other isoform, or with tags, fused parts or gaps F165A F165A limits assumed) above, with R119A, A121F counted along it

[10] = target: his-tagged sortilin luminal domain, mutant R166A (human) (UniProt Q99523); assay: as above
his-tagged sortilin luminal domain, mutant R166A (human), sequence (Q99523 other isoform, or with tags, fused parts or gaps R166A R166A limits assumed): as the sequence (Q99523 other isoform, or with tags, fused parts or gaps F165A F165A limits assumed) above, with A121F, R122A counted along it

purified human Sortilin extracellular domain (produced in stably transfected CHO cells) (human), sequence (Q99523 78-755 V650M limits assumed): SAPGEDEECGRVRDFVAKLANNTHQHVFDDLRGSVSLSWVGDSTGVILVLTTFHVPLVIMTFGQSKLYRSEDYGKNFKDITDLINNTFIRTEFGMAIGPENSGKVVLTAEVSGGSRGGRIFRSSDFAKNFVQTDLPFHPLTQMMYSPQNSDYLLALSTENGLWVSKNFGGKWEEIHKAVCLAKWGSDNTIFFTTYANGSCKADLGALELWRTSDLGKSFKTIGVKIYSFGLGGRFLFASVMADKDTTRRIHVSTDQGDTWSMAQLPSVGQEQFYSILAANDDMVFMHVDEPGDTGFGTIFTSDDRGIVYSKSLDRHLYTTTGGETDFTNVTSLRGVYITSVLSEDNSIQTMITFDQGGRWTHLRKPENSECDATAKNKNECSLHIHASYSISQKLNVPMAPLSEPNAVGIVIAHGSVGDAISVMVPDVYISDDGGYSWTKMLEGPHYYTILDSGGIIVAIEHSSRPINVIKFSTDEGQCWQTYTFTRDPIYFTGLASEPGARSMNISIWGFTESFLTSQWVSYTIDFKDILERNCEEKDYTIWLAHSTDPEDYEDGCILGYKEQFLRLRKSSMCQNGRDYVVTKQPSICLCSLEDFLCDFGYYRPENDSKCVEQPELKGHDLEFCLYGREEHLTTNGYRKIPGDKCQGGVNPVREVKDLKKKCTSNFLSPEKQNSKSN
recombinant human Sortilin ectodomain with C-terminal poly-histidine tag (pCEP-Pu, EBNA293/HEK293 cells), ending at Ser725, sequence (Q99523 other isoform, or with tags, fused parts or gaps limits assumed): as the sequence (Q99523 other isoform, or with tags, fused parts or gaps F165A F165A limits assumed) above, with A121F counted along it

In the case of “human NGF-propeptide expressed in E. coli”, the Kd [1] is reported as 8 nM and the percent inhibition of proNGF binding to Sortilin [2] is reported as 85%.

With “recombinant human Sortilin ectodomain with C-terminal poly-histidine tag (pCEP-Pu, EBNA293/HEK293 cells), ending at Ser725 (from UniProt Q99523 78-755) (receptor)” the response (RU) [3] was 300 RU.

For “GST-NGF-pro-domain fusion protein (Nykjaer et al., Nature 2004) (from UniProt P01138 19-121)”, the Kd [4] was 3.86 nM, the Kd [5] was 5.59 nM and the Kd [6] was 4.27 nM. It also gave a Kd [7] of 3.91 nM, a Kd [8] of 1.89 nM and a kon [8] of 147000 M⁻¹ s⁻¹. The Kd [9] was 2.7 nM and the Kd [10] was 4.38 nM.
